Assay results taken from patent US20060286112A1 (published 2006).

B1: 7.3 (antibody, V domains shown)
VH: QVQLVESGGGVVQPGRSLRLSCAASGITFSSYGMHWVRQAPGKGLEWVAVMWYEGSNKYYADSVKGRFTISRDNSKNTLYLQMNSLRAEDTAVYYCARGVLRYFDWLSYWGQGTLVTVSS
VL: EIVMTQSPATLSVSPGERATLSCRASQSVSSHLAWYQQKPGQAPRLLIYGASTRATGIPARFSGSGSGTEFTLTISSLQSEDFAVYYCQQYNNWPLTFGGGTKVEIK
B2: 7.34 (antibody, V domains shown)
VH: EVQLVESGGGLVKPGGSLRLSCAASGFTFSNAWMSWVRQAPGKGLEWVGRIKSKTEGGTTDNVAPVKGRFTISRDDSKNTLYLQMNSLKTEDTAVYYCTITTHYYGMDVWGQGTTVTVSS
VL: DIQMTQSPSSLSASVGDRVTITCRASQTINNYLNWYQQKPGKAPKLLIYAASSLQSGVPSRFSGSGSGTDFTLTISSLQPEDFATYSCQQSNSPPFTFGPGTKVDVK
B3: 4.13 (antibody, V domains shown)
VH: QVQLVQSGAEVKKPGASVKVSCKASGYTFTSYYMNWVRQAPGQGLEWMGIISPSGGSTTYAQKFQGRVTMTRDTSTSTVYMELSSLRSEDTAVYYCARTGYSGYEGYYYGLDVWGQGTTVTVSS
VL: DVVMTQSPLSQPVTLGQPASISCRSSQSLVYSDGNTYLHWFQQRPGQSPRRLIYKVSNWDSGVPDRFSGSGSGTDFTLKISRVEAEDVGVYDCMQGTHWPSTFGGGTKVEIK
B4: 7.73 (antibody, V domains shown)
VH: QVQLQESGPGLVKPSETLSLTCTVSGGSISSHYWSWIRQPAGKGLEWIGRVYSSGSTNSNPSLKSRVTMSVDTAKNQFSLKLSSVTAADTAVYYCAREGYDFWSDYYNYYYGMDVWGQGTTVTVS
VL: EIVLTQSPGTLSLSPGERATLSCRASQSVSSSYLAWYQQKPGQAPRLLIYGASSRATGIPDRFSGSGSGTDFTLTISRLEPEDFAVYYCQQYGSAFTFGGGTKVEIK
B5: 7.22 (antibody, V domains shown)
VH: QVQLQESGPGLGKPSQTLSLTCTVSGGSISSGGHYWSWIRQHPGKGLEWIGYIYYSGSTYYNPSLKSRVTISVDTSKNQFSLKLSSVTAADTAVYYCARDDVRYGGMDVWGQGTTVTVSS
VL: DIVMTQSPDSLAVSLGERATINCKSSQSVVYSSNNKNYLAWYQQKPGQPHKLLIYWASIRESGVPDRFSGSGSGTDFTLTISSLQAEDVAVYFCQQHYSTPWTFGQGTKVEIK
B6: 2.25 (antibody, V domains shown)
VH: QVQLQQSGPGLVKPSQTLSLTCAISGDSVSSNSAAWNWIRQSPSRGLEWLGRTYYMSKWYNDYAVSVKSRITINPDTSKNQFSLQLNSVTPEDTAVYYCARARYCGGDCYDFDYWGQGTLVTVSS
VL: DIQMTHSPSSLSASVGDRVTITCRASQSISISLNWYQQKPGNAPKLLIYAASSLQSGIPSRFSGSGSGTDFTLTISSLQPEDFATYYCQQSFSTPWTFGQGTKVEIK
B7: 7.40 (antibody, V domains shown)
VH: QVQLQESGPGLVKPSETLSLTCTVSGGSISSHYWSWIRQPAGKGLEWIGRIYTSGSTNYNPSLKSRVTMSVDTSKNQFSLKLRSVTAADTAVYYCAREGYSSSSGHYDYYYGMDVWGQGTTVTVS
VL: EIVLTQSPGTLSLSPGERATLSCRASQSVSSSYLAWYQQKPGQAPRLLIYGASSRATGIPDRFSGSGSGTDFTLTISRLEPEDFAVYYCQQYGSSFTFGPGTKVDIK
B8: 7.7 (antibody, V domains shown)
VH: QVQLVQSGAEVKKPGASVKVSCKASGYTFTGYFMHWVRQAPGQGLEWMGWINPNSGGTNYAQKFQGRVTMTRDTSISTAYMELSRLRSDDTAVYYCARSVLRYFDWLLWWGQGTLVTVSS
VL: DIVMTQSPESLAVSLGERTTINCKSSQSVLFSSNNENHLAWYQQKPGQPPKLLIYWASTRESGVPDRFSGSGSGTDFTLTISSLQAEDVAVYYCQQYYITPCSFGQGTKLEIK
notes: human IgG2 or IgG4
B9: 6.48 (antibody, V domains shown)
VH: EVQLVQSGAEVKKPGESLRISCKGSGYSVSSYWIGWVRQMPGKGLEWMGIIYPGDSDTRYSPSFQGQVTISADKSISTAFLQWISLKASDTAMYYCARLQGDCSGGSCYGHFDCWGQGTLVTVS
VL: DVVLTQSPLSLPVTLGQPASISCRSSQSLVNSDGDTYLSWFQQWPGQSPRRLFYEVSNWDSGVPDRFSGSGSGTDFTLKISRVEAEDVGVYYCMQGTHWLTFGGGTKVEIK
notes: human IgG2 or IgG4
B10: 2.11 (antibody, V domains shown)
VH: QVQLQESGPGLVKPSQTLSLTCTVSGGSINSGGYYWSWIRQHPGKGLEWIGYIFYSGSTYYNPSLKSRVNISVDTSKNQFSLKMSSVTAADTAVYYCARDQDGFDYWGQGTLVTVSS
VL: DIVMTQTPLSLPVTPGEPASISCRSSQSLLDSDDGNTYLDWYLQKPGQSPQLLIYTLSYRASGVPDRFSGSGSGTDFTLKISRVEAEDVGVYYCMQRIEFPWTFGQGTKVEIK
notes: human IgG2 or IgG4
B11: 6.3 (antibody, V domains shown)
VH: QVLLQESGPGLVKPSQTLSLTCTVSGGSISSGGYYWSWIRQHPGKGLEWIGYINYSGSAYYNPSLKSRVTISVDTSKNQFSLKLSSVTAADTAVYYCARDHWLLRGFDYWGQGTLVTVSS
VL: DIVMTQTPLSLSVTPGQPASISCKSSQSLLHSDGKTYLYWYLQKPGQPPQLLIYEVSNRFSGVPDRFSGSGSGTDFTLKISRVEAEDVGVYYCMQSIQLPRTFGQGTKVEIK
B12: 2.1 (antibody, V domains shown)
VH: QVQLQESGPGLVKPSQTLSLTCTVSGGSISSGGYYWSWIRQHPGKGLEWIGYIYNSGSTYYNPSLKSRGTISADTSKNQFSLKLSSVTAADTAVYYCARGSSSYYWYFDLWGRGTLVTVSS
VL: DIQMTQSPSSMSASVGDRVTITCRASQRISSNLNWYQQKPGKAPKFLIYGASSLQSGVPSRFSGSGSGTDFTLTISSLRPEDFATYYCQQSYSTPYTFGPGTKVDIK
B13: 7.57 (antibody, V domains shown)
VH: QVQLVQSGAEVKKPGASVRVSCKASGYTFTGYFMHWVRQAPGQGLEWMGWINPNSGGTNYAQKFQGRVTMTRDTSISTASMELSRLRSDDTAVYYCARAPLRYFDWLDYWGQGTLVTVSS
VL: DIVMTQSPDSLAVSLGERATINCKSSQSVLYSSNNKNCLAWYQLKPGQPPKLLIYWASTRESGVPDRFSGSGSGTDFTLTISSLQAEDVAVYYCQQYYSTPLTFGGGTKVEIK
B14: 2.10 (antibody, V domains shown)
VH: EVQLVESGGGLVKPGGSLRLSCAASGFTLSSYSMNWVRQAPGKGLEWVSSISSSSSYIHYADSVKGRFTISRDNAKNSLYLQMNSLRAEDTAVYYCARAPVVFDYWGQGTLVTVSS
VL: EIVLTQSPGTLSLSPGERATLSCRASQSVSSSYLAWYQQKPGQAPRLLISGASSRATGIPDRFSGSGSGTDFTLTISRLEPEDFAVYYCQQYGGSLTWTFGQGTKVEIK

Target: T1, human VLA-1 α1 subunit (CD49a), full-length, on transfected CHO cells (human, UniProt P56199 29-1179)
Assay: cell-based or functional assay

| Binder | IC50, adhesion of CHO-VLA-1 cells to collagen IV [nM] |
| --- | --- |
| B1 | 0.94 |
| B2 | 0.19 |
| B3 | < 0.01 |
| B4 | 0.43 |
| B5 | 0.41 |
| B6 | 74.9 |
| B7 | 4.72 |
| B8 | 0.59 |
| B9 | 0.12 |
| B10 | 0.07 |
| B11 | 0.68 |
| B12 | 21.4 |
| B13 | 3.25 |
| B14 | 2.37 |

Target: T2, human VLA-1 (alpha 1/beta 1, CD49a/CD29) on IL-2 stimulated human PBMC / T cells (human, UniProt P56199 29-1179; P05556 21-798)
Assay: cell-based or functional assay

| Binder | % adhesion of T cells to collagen IV vs no antibody, 0.5 nM mAb, 10 ng/ml PMA [%] | % adhesion of T cells to collagen IV vs no antibody, 5 nM mAb, 10 ng/ml PMA [%] |
| --- | --- | --- |
| B2 | 98.2 | 89.7 |
| B8 | 96.6 | 91.9 |
| B9 | 94.6 | 72.5 |

Target: T2, human VLA-1 (alpha 1/beta 1, …)
Assay: cell-based or functional assay
Remark: another data set of the same source

| Binder | % adhesion of IL-2 activated T cells to collagen IV vs no antibody, 10 µg/ml, +PMA [%] | % adhesion of IL-2 activated T cells to collagen IV vs no antibody, 10 µg/ml, -PMA [%] |
| --- | --- | --- |
| B2 | 38.3 | 41.3 |
| B8 | 27.4 | 40.1 |
| B9 | 17.5 | 41.3 |

Target: T1, human VLA-1 α1 subunit (CD49a), …
Assay: cell-based or functional assay
Remark: another data set of the same source

| Binder | relative inhibition at an optimal concentration, CHO-VLA-1 adhesion to collagen IV [%] |
| --- | --- |
| B2 | > 80 |
| B3 | > 80 |
| B4 | > 80 |
| B5 | > 80 |
| B9 | > 80 |
| B10 | > 80 |

Target: T2, human VLA-1 (alpha 1/beta 1, …)
Assay: cell-based or functional assay
Remark: another data set of the same source

| Binder | % adhesion of T cells to collagen IV vs no antibody, 0.5 nM mAb, no PMA [%] | % adhesion of T cells to collagen IV vs no antibody, 5 nM mAb, no PMA [%] |
| --- | --- | --- |
| B2 | 89.2 | 50.6 |
| B8 | 113 | 66.5 |
| B9 | 70 | 16.7 |

Target: T3, human CD49a I domain I11F (human, UniProt P56199 151-364, I11F)
T3 construct: domain: I domain; not shown: myc and His tags
Assay: ELISA on secreted mutant I domain

| Binder | binding result |
| --- | --- |
| B8 | binds |
| B9 | binds |
| B10 | binds |

Target: T4, human CD49a I domain K88N (human, UniProt P56199 151-364, K88N)
T4 construct: domain: I domain; not shown: myc and His tags
Assay: ELISA on secreted mutant I domain

| Binder | binding result |
| --- | --- |
| B8 | binds |
| B9 | binds |
| B10 | binds |

Target: T5, human CD49a I domain T204A (human, UniProt P56199 151-364, T204A)
T5 construct: domain: I domain; not shown: myc and His tags
Assay: ELISA on secreted mutant I domain

| Binder | binding result |
| --- | --- |
| B8 | binds |
| B10 | binds |

Target: T6, human CD49a I domain with residues 91-96 VQRGGR replaced by mouse GRRGGL (human, UniProt P56199 151-364, V91G; Q92R; R96L)
T6 construct: domain: I domain; also called V91G, Q92R, R96L; not shown: myc and His tags
Assay: ELISA on secreted mutant I domain

| Binder | binding result |
| --- | --- |
| B8 | binds |
| B9 | no binding |
| B10 | binds |

Target: T7, human CD49a I domain E66A (human, UniProt P56199 151-364, E66A)
T7 construct: domain: I domain; not shown: myc and His tags
Assay: ELISA on secreted mutant I domain

| Binder | binding result |
| --- | --- |
| B8 | binds |
| B9 | binds |
| B10 | binds |

Target: T8, human CD49a I domain E48K (human, UniProt P56199 151-364, E48K)
T8 construct: domain: I domain; not shown: myc and His tags
Assay: ELISA on secreted mutant I domain

| Binder | binding result |
| --- | --- |
| B8 | no binding |
| B9 | binds |
| B10 | binds |

Target: T9, human CD49a I domain K142Q (human, UniProt P56199 151-364, K142Q)
T9 construct: domain: I domain; text prints KI42Q once; not shown: myc and His tags
Assay: ELISA on secreted mutant I domain

| Binder | binding result |
| --- | --- |
| B8 | binds |
| B9 | binds |
| B10 | no binding |

Target: T10, human CD49a I domain S162H (human, UniProt P56199 151-364, S162H)
T10 construct: domain: I domain; not shown: myc and His tags
Assay: ELISA on secreted mutant I domain

| Binder | binding result |
| --- | --- |
| B8 | binds |
| B9 | binds |
